According to publication PMC7805551:

Biological target: chicken MHF complex (MHF1/MHF2 heterotetramer) (chicken) (UniProt E1BSW7)
Experiment: native gel or EMSA; 2 mg/ml FANCM–MHF or MHF mixed 1:1 with 10 mM Tris–HCl pH 8 or 10–60% MPD, 20°C for 60 min; 6% polyacrylamide TBE gel, 0.5x TBE, 4°C; bands cut out and analysed by SDS–PAGE; at 30% MPD a smeared band at the position of MHF

percent of MHF without FANCM: 3%
Substance: chicken FANCM (MHF interaction region, amino acids 660–804) (from UniProt A0A1D5PRR9 660-804) (domain or fragment)
